Laboratory results as given in patent US20190083491, “SMALL MOLECULES INHIBITORS OF RAD51” (The University of Chicago, published 2019).

Target: RAD51 (Homo sapiens, UniProt Q06609 Q06609:2-339)
Experiment: FP; 0.2 uM RAD51, 2.22 nM ssDNA, 2 mM ATP, 10 mM MgCl2, 30 mM NaCl, pH 7.5, 37 C; binding used to measure compound effects, no Kd given
Settings: tags: human RAD51, purified as previously described (source inferred); label: 5'-Alexa488
Method: In each well, RAD51 protein was combined with reaction buffer and varying concentrations of compound in DMSO in an initial volume of 40 μl and incubated at 37° C. for 40 minutes. […] The final reaction contained 4% DMSO, 0.2 μM RAD51, 30 mM NaCl, 2% glycerol, and 2.22 nM ssDNA substrate.

RAD51, sequence (Q06609 2-339, one chain of several): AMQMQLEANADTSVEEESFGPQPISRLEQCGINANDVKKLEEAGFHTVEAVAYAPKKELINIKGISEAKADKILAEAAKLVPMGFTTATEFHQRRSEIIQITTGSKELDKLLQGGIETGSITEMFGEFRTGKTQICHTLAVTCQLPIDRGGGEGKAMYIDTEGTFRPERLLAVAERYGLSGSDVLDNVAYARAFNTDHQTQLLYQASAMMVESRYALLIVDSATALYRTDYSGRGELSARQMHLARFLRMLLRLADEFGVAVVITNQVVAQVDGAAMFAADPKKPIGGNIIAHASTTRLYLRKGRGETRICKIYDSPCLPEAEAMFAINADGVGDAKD

TTTTTTTTTTTTTTTTTTTTTTTTTTTTTTTTTTTTTTTTTTTTT (ssDNA) [Alexa488-oligo-dT45]: binds.
